{"source": "patent US20190169246A1", "about": "(UNIVERSITY OF SOUTH FLORIDA, published 2019)", "binders": {"B1": {"name": "ApoER2 (as bound by APC) (receptor)", "chain": "not shown"}}, "molecular_target": "APC", "sequence (Q14114 33-826)": "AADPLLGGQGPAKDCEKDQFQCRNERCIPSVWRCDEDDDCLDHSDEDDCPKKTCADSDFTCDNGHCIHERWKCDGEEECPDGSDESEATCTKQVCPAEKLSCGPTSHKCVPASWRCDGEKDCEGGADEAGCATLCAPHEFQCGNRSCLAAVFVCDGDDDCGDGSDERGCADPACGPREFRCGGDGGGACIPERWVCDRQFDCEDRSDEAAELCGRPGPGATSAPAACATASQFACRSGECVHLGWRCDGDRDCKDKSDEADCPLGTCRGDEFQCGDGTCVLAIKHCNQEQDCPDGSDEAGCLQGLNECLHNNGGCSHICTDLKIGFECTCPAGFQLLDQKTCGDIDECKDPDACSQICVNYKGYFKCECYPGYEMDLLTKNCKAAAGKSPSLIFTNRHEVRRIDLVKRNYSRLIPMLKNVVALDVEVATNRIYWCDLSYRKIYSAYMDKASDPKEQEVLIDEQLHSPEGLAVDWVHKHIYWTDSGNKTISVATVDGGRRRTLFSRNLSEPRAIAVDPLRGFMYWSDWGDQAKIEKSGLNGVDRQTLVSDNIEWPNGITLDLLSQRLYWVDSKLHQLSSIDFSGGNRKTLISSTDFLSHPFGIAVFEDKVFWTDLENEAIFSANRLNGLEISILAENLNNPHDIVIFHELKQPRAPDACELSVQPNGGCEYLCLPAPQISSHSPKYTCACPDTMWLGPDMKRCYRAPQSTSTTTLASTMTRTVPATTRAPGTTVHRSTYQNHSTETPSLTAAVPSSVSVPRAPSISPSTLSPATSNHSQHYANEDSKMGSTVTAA", "data": [{"binder": "B1", "values": [{"measurement": "Kd", "result": 30, "unit": "nM"}]}]}
